Assay results from US20110265202A1.

Legend:
[1] = molecular target: PrpS1-GFP fusion protein expressed in Arabidopsis thaliana pollen (line BG16) (Papaver rhoeas); assay: cell-based or functional assay
[2] = molecular target: PrpS8 (Papaver rhoeas pollen S8 protein) on P. rhoeas pollen (Papaver rhoeas); assay: cell-based or functional assay

recombinant Papaver rhoeas pistil S1 protein (PrsS1) (ligand)
pollen germination of BG16 Arabidopsis pollen, in vitro SI assay [1]: 50 % reduction | pollen viability (Evans blue) at t=2 h, BG16+PrsS1 against WT+S1 pollen [1]: 35 times lower | pollen viability (Evans blue) at t=4 h, BG16+PrsS1 against WT+S1 pollen [1]: 53 times lower | pollen viability (Evans blue) at t>8 h, BG16+PrsS1 against WT+S1 pollen [1]: 45 times lower

recombinant Papaver rhoeas pistil S8 protein (PrsS8) (ligand)
% germination of P. rhoeas S1S8 pollen with both PrsS1 and PrsS8 added (29.7% with S1 alone) [2]: 1%
